Source: the RNAGym collection of RNA variant scans (doi:10.7554/elife.80360)

B1: Hairpin Ribozyme (parent)
chain: GUCCUCUUUCACGUGCGCGUGAAAGAGAGAAGUGAACCAGAGAAACACACGUUGUGGUAUAUUACCUGGUA

Variants of: B1
Experiment: self-cleavage, relative activity (ratio to wild type); higher = more cleavage; co-transcriptional

Going from G19A A36G to C18U U53C, the self-cleavage rises from 0.997 to 1.03.

Compared with G19C C65U, G19C U53G is higher in self-cleavage: 0.337 for the first, 0.566 for the second.

Going from G19C U70C to G19C U70G, the self-cleavage falls from 0.879 to 0.695.

Compared with G19U A61G, G19U A61C is higher in self-cleavage: 0.231 for the first, 0.236 for the second.

First: G19C C50U
Second: G19C C50G
The self-cleavage of the first is higher: 0.397 for the first, 0.196 for the second.

Going from G19C G68U to G19U A36U, the self-cleavage rises from 0.213 to 0.628.

Going from G19U A36C to G19U A36G, the self-cleavage rises from 0.554 to 1.

Going from G19A G54U to G19A G54A, the self-cleavage falls from 0.535 to 0.51.

First: C18U G34A
Second: G19C A49U
The self-cleavage of the first is higher: 1.3 for the first, 0.207 for the second.

First: G19C G21A
Second: G19C A28U
The self-cleavage of the first is higher: 0.657 for the first, 0.63 for the second.

Going from G19C C38G to G19C U20G, the self-cleavage rises from 0.142 to 1.05.

First: G19C U20A
Second: G19C U20C
The self-cleavage of the first is higher: 0.965 for the first, 0.809 for the second.

Going from G19A A61C to G19A A28C, the self-cleavage rises from 0.169 to 0.417.

Compared with C18U U62A, G19A G57U is higher in self-cleavage: 0.225 for the first, 0.289 for the second.

Compared with G19C A45U, G19C G32U is higher in self-cleavage: 0.142 for the first, 0.173 for the second.

Compared with C18U U70G, G19A G25A is lower in self-cleavage: 0.973 for the first, 0.368 for the second.

Going from G19A G32C to G19C G29U, the self-cleavage rises from 0.111 to 0.159.

First: C18U U55C
Second: G19U A64U
The self-cleavage of the first is higher: 0.318 for the first, 0.217 for the second.

First: G19U A43G
Second: G19U A43U
The self-cleavage of the first is higher: 0.136 for the first, 0.134 for the second.

Compared with G19C G54A, G19U A44G is lower in self-cleavage: 0.432 for the first, 0.163 for the second.

Compared with G19A A47C, G19A C38A is lower in self-cleavage: 0.308 for the first, 0.153 for the second.

Going from G19A G51A to G19U C46U, the self-cleavage falls from 1.07 to 0.136.

Going from G19C U62G to G19C G51U, the self-cleavage rises from 0.282 to 0.973.

Going from G19C G51A to G19C G51C, the self-cleavage falls from 0.903 to 0.775.

Compared with G19A G27A, G19A G27C is higher in self-cleavage: 0.243 for the first, 0.321 for the second.

First: G19C G69C
Second: G19C G69A
The self-cleavage of the first is lower: 0.369 for the first, 0.403 for the second.

First: G19A U70A
Second: G19U G21C
The self-cleavage of the first is lower: 0.599 for the first, 0.692 for the second.

Going from C18U G54C to G19A A59G, the self-cleavage falls from 0.543 to 0.2.

Going from G19A U20G to G19C A23U, the self-cleavage falls from 0.786 to 0.656.

First: G19U A41G
Second: G19U A41C
The self-cleavage of the first is higher: 0.913 for the first, 0.899 for the second.

Going from G19C A44C to G19C U33A, the self-cleavage falls from 0.152 to 0.125.

First: G19C U33C
Second: G19U A47C
The self-cleavage of the first is lower: 0.173 for the first, 0.418 for the second.

Going from G19U A47G to C18U G69A, the self-cleavage rises from 0.24 to 0.476.

First: G19A U62A
Second: G19A A23U
The self-cleavage of the first is lower: 0.0978 for the first, 0.711 for the second.

Compared with G19A A23C, C18U U58A is lower in self-cleavage: 0.763 for the first, 0.657 for the second.

Compared with G19U C48A, G19C A41G is higher in self-cleavage: 0.135 for the first, 0.743 for the second.

First: G19A G34U
Second: G19A G34C
The self-cleavage of the first is lower: 1.18 for the first, 1.32 for the second.

First: G19A G34A
Second: G19C U52C
The self-cleavage of the first is higher: 1.02 for the first, 0.775 for the second.

First: G19A A49U
Second: G19A A49C
The self-cleavage of the first is higher: 0.17 for the first, 0.131 for the second.

Compared with G19U A35U, G19U A35G is higher in self-cleavage: 0.626 for the first, 1.06 for the second.

Going from G19U A28G to G19A U52A, the self-cleavage falls from 1 to 0.809.

First: C18U U33G
Second: C18U U33C
The self-cleavage of the first is lower: 0.0901 for the first, 0.172 for the second.

Going from C18U G51U to G19A A41G, the self-cleavage falls from 0.993 to 0.754.

Going from G19A G56C to G19A G56A, the self-cleavage falls from 0.136 to 0.124.

First: G19C A35G
Second: G19C A43G
The self-cleavage of the first is higher: 0.74 for the first, 0.219 for the second.

First: C18U U60G
Second: C18U U60C
The self-cleavage of the first is lower: 0.719 for the first, 1.28 for the second.

Going from G19A U63C to G19A U63A, the self-cleavage falls from 0.213 to 0.104.

First: G19C C66A
Second: G19C C66U
The self-cleavage of the first is lower: 0.238 for the first, 0.528 for the second.

Compared with G19A A26U, G19A C48U is lower in self-cleavage: 0.563 for the first, 0.179 for the second.

First: G19A C48G
Second: C18U G42A
The self-cleavage of the first is lower: 0.153 for the first, 0.167 for the second.

Going from C18U G42C to G19C A47C, the self-cleavage falls from 0.416 to 0.207.

First: G19C A47U
Second: G19C G57C
The self-cleavage of the first is lower: 0.152 for the first, 0.25 for the second.

First: G19C G57U
Second: G19U A49G
The self-cleavage of the first is lower: 0.275 for the first, 0.545 for the second.

Going from G19U A49C to G19C G40C, the self-cleavage rises from 0.18 to 0.191.

Going from C18U U52C to C18U U52G, the self-cleavage falls from 0.928 to 0.859.

First: G19A U58C
Second: C18U G56A
The self-cleavage of the first is higher: 0.856 for the first, 0.135 for the second.

First: G19U C66G
Second: G19A G21U
The self-cleavage of the first is lower: 0.22 for the first, 0.727 for the second.

Going from G19C G25C to G19C A36U, the self-cleavage rises from 0.46 to 0.603.

First: G19A U67G
Second: G19C A22C
The self-cleavage of the first is lower: 0.199 for the first, 0.702 for the second.

First: G19C A22G
Second: G19A C37A
The self-cleavage of the first is higher: 0.866 for the first, 0.264 for the second.

Going from G19U A45U to G19U A45C, the self-cleavage rises from 0.145 to 0.292.

First: G19U A45G
Second: G19A G40C
The self-cleavage of the first is higher: 0.228 for the first, 0.0669 for the second.

First: G19U G25A
Second: G19U G25U
The self-cleavage of the first is lower: 0.33 for the first, 0.548 for the second.

First: G19U G25C
Second: G19A A64G
The self-cleavage of the first is lower: 0.537 for the first, 0.579 for the second.

Going from G19C A64C to G19C A64U, the self-cleavage falls from 0.182 to 0.135.

First: G19A A30U
Second: G19C A30C
The self-cleavage of the first is lower: 0.14 for the first, 0.221 for the second.

First: G19A G42A
Second: G19A C66U
The self-cleavage of the first is lower: 0.202 for the first, 0.344 for the second.

Going from G19A C66A to G19A C66G, the self-cleavage falls from 0.314 to 0.168.

Compared with G19U A23C, G19U A23U is higher in self-cleavage: 0.666 for the first, 0.944 for the second.

First: G19A A71C
Second: G19C A61C
The self-cleavage of the first is higher: 1.38 for the first, 0.333 for the second.

Compared with G19U A71U, G19U A71C is higher in self-cleavage: 0.738 for the first, 1.39 for the second.

First: G19C A71C
Second: G19A U33A
The self-cleavage of the first is higher: 1.24 for the first, 0.0829 for the second.

Going from C18U G57C to G19A A31U, the self-cleavage rises from 0.157 to 0.176.

First: G19A A31C
Second: G19U C37U
The self-cleavage of the first is lower: 0.136 for the first, 0.588 for the second.

First: G19C G34U
Second: G19C A39U
The self-cleavage of the first is higher: 1.45 for the first, 0.441 for the second.

Going from G19C A39C to G19C A26C, the self-cleavage falls from 0.44 to 0.272.

Going from G19A A45G to G19A A45C, the self-cleavage falls from 0.195 to 0.108.

First: G19C U55G
Second: G19C U55A
The self-cleavage of the first is higher: 0.335 for the first, 0.17 for the second.

Compared with G19A A22G, G19A A22U is lower in self-cleavage: 0.714 for the first, 0.531 for the second.

First: G19U A31C
Second: G19C G56C
The self-cleavage of the first is lower: 0.0951 for the first, 0.124 for the second.

Going from G19A A24G to G19U C50U, the self-cleavage falls from 0.737 to 0.33.

Going from G19A C46A to G19A C46U, the self-cleavage falls from 0.176 to 0.165.

Going from G19C C37A to G19C C37G, the self-cleavage rises from 0.32 to 0.356.

For G19C C37U, the self-cleavage was 0.454.
